Values belong to the binder of their own block, whether it stands above or below them.
Key:
[1] = target: T1, CD33 expressed on MV4-11 human AML cells (human, UniProt P20138 18-364); assay: flow cytometry on MV4-11 cells
T1 construct: whole, on cells; also called cell-expressed CD33

[2] = target: T1, CD33 expressed on MV4-11 human AML cells; assay: flow cytometry on MV4-11 cells, MFI fold over background
[3] = target: T2, murine NKG2D overexpressed on EL4 cells (EL4-mNKG2D) (mouse, UniProt O54709 1-232); assay: flow cytometry, 60 ug/mL with four-fold dilutions, EL4-mNKG2D cells, goat anti-mouse PE
T2 construct: whole, on cells; also called EL4-mNKG2D cells
T2 sequence (looked up): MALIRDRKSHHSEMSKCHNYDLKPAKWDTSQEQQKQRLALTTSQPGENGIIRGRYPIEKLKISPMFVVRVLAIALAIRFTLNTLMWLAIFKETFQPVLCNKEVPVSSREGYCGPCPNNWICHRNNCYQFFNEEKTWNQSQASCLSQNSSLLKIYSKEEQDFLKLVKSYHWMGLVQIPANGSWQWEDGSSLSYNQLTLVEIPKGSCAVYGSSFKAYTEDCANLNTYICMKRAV

[4] = target: T3, Tyrp-1 on B16F10 melanoma cells (UniProt P07147 25-537, limits assumed); assay: flow cytometry, 60 ug/mL with four-fold dilutions, B16F10 tumor cells, goat anti-mouse PE
T3 construct: whole, on cells; B16F10 is a mouse melanoma line; also called Tyrp-1-positive B16F10 melanoma cells

T1 sequence (P20138 18-364): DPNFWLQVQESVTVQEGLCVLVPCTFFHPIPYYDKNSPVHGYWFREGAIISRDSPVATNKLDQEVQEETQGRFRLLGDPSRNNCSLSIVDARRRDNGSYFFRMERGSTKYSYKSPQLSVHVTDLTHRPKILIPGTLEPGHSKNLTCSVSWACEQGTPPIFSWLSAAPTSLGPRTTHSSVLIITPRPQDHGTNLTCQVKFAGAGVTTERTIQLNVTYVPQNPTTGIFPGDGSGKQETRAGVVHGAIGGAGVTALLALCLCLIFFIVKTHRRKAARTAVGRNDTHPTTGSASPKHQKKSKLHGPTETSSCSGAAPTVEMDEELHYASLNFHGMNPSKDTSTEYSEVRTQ

binding result [1]: binds
B1: CD33-TriNKET-C26 (ADI-28226 and a CD33-binding domain) (bispecific antibody, V domains shown)
VH 1: QVQLQQWGAGLLKPSETLSLTCAVYGGSFSGYYWSWIRQPPGKGLEWIGEIDHSGSTNYNPSLKSRVTISVDTSKNQFSLKLSSVTAADTAVYYCARARGPWSFDPWGQGTLVTVSS
VL 1: DIQMTQSPSTLSASVGDRVTITCRASQSISSWLAWYQQKPGKAPKLLIYKASSLESGVPSRFSGSGSGTEFTLTISSLQPDDFATYYCQQYGSFPITFGGGTKVEIK
VH 2: QVQLVQSGAEVKKPGASVKVSCKASGYTFTDYVVHWVRQAPGQGLEWMGYINPYNDGTKYNEKFKGRVTMTRDTSISTAYMELSRLRSDDTAVYYCARDYRYEVYGMDYWGQGTLVTVSS
VL 2: DIVLTQSPASLAVSPGQRATITCTASSSVNYIHWYQQKPGQPPKLLIYDTSKVASGVPARFSGSGSGTDFTLTINPVEANDTANYYCQQWRSYPLTFGQGTKLEIK
notes: also called C26-TriNKET-CD33

binding result [2]: binds
B2: parental anti-CD33 monoclonal antibody (antibody, V domains shown)
VH: B1 VH 2
VL: B1 VL 2
notes: also called parental monoclonal anti-CD33 antibody; parental anti-CD33 antibody

binding result [3]: binds
binding result [4]: binds
B3: mcFAE-C26.99 TriNKET (bispecific antibody, mouse IgG2c)
heavy 1: QVQLQQWGAGLLKPSETLSLTCAVYGGSFSGYYWSWIRQPPGKGLEWIGEIDHSGSTNYNPSLKSRVTISVDTSKNQFSLKLSSVTAADTAVYYCARARGPWSFDPWGQGTLVTVSSAKTTAPSVYPLAPVCGGTTGSSVTLGCLVKGYFPEPVTLTWNSGSLSSGVHTFPALLQSGLYTLSSSVTVTSNTWPSQTITCNVAHPASSTKVDKKIEPRVPITQNPCPPLKECPPCAAPDLLGGPSVFIFPPKIKDVLMISLSPMVTCVVVDVSEDDPDVQISWFVNNVEVHTAQTQTHREDYNSTLRVVSALPIQHQDWMSGKEFKCKVNNRALPSPIEKTISKPRGPVRAPQVYVLPPPAEEMTKKEFSLTCMIKGFLPAEIAVDWTSNGRTEQNYKNTATVLDSDGSYFMYSRLRVQKSTWERGSLFACSVVHEGLHNHLTTKTISRSLGK
light 1: DIQMTQSPSTLSASVGDRVTITCRASQSISSWLAWYQQKPGKAPKLLIYKASSLESGVPSRFSGSGSGTEFTLTISSLQPDDFATYYCQQYGSFPITFGGGTKVEIKRADAAPTVSIFPPSSEQLTSGGASVVCFLNNFYPKDINVKWKIDGSERQNGVLNSWTDQDSKDSTYSMSSTLTLTKDEYERHNSYTCEATHKTSTSPIVKSFNRNEC
heavy 2: EVQLQQSGAELVRPGALVKLSCKTSGFNIKDYFLHWVRQRPDQGLEWIGWINPDNGNTVYDPKFQGTASLTADTSSNTVYLQLSGLTSEDTAVYFCTRRDYTYEKAALDYWGQGASVIVSSAKTTAPSVYPLAPVCGGTTGSSVTLGCLVKGYFPEPVTLTWNSGSLSSGVHTFPALLQSGLYTLSSSVTVTSNTWPSQTITCNVAHPASSTKVDKKIEPRVPITQNPCPPLKECPPCAAPDLLGGPSVFIFPPKIKDVLMISLSPMVTCVVVDVSEDDPDVQISWFVNNVEVHTAQTQTHREDYNSTLRVVSALPIQHQDWMSGKEFKCKVNNRALPSPIEKTISKPRGPVRAPQVYVLPPPAEEMTKKEFSLTCMITGFLPAEIAVDWTSNGRTEQNYKNTATVLDSDGSYLMYSKLTVQKSTWERGSLFACSVVHEGLHNHLTTKTISRSLGK
light 2: DIQMSQSPASLSASVGETVTITCRASGNIYNYLAWYQQKQGKSPHLLVYDAKTLADGVPSRFSGSGSGTQYSLKISSLQTEDSGNYYCQHFWSLPFTFGSGTKLEIKRADAAPTVSIFPPSSEQLTSGGASVVCFLNNFYPKDINVKWKIDGSERQNGVLNSWTDQDSKDSTYSMSSTLTLTKDEYERHNSYTCEATHKTSTSPIVKSFNRNEC
notes: Heterodimer of mC26 and TA99 with mouse IgG2c as the Fc; also called murine cFAE-C26.99 TriNKET; TA99 TriNKET

— US20240166753A1 (DRAGONFLY THERAPEUTICS, published 2024)
